Measured values taken from US20090305963A1, “Lipocalin 2 for the Treatment, Prevention, and Management of Cancer Metastasis, Angiogenesis, and Fibrosis” (priority 2005, published 2009).

Tests used:
[1] = system: AKT; assay: Western blot for phospho-AKT; format: cell-based, mouse
Excerpt: FIGS. 14A-14B are western blots for phospho-AKT (pAKT) showing the downregulation of ras-induced AKT phosphorylation, but not IGF-1 induced AKT phosphorylation, by lipocalin 2. FIG. 14A is a western blot for pAKT showing the lysate from each 4T1 clone (EV, R and RL). FIG. 14B is a western blot for pAKT showing the lysate from EV or RL cells treated with or without IGF-1. GAPDH serves as a loading control.
(§1) Cells were stained as described previously (Mammoto et al., Cancer Lett. 184:165-170, 2002) and images acquired with a Delta Vision system (Applied Precision, Issaquah, Wash.) equipped with an Axiovert 100 microscope (Carl Zeiss MicroImaging Inc., Shelton, Conn.) and a Photometrics 300 series scientific-grade cooled CCD camera, reading 12-bit images, and using the 63/1.4 NA plan-Neofluar objective. For immunoprecipitation and immunoblotting, tissues were weighed, diced, soaked in ice cold RIPA buffer with 1 mM phenylmethylsulfonyl fluoride (PMSF), 1 μg/ml Aprotinin, 1 mM Na3VO4, 1 nM NaF, homogenized on ice, centrifuged at 10,000 g for 10 minutes at 4° C., and the supernatant fluid collected as total cell lysate. […] Protein bands were detected using SuperSignal® West Pico Chemiluminescent Substrate (Pierce Chemical Co., Rockford, Ill.) (Hanai et al., J. Cell. Biol. 158:529-539, 2002).

[2] = system: caveolin-1; assay: Western blot of caveolin-1 expression in 4T1 clones; format: cell-based, mouse; details: RL vs R cells
Excerpt: FIGS. 17A-17C show the involvement of caveolin-1 in the MET-inducing and anti-angiogenic function of lipocalin 2.
as §1, with “lysate. Cultured cells were washed, scraped, and solubilized in a lysis buffer containing 20 mM Tris-HCl pH 7.5, 150 mM NaCl, 0.5% Triton X-100, 1% aprotinin, and 1 mM PMSF. After 20 minutes on ice, the cells were pelleted by centrifugation and the supernatants were used as a cell lysate.” for “lysate.”

[3] = system: 4T1-ras (R) cells; assay: In vitro invasion assay (Matrigel-coated Transwells); format: cell-based, mouse; details: stable lipocalin 2 expression (RL) vs R cells; 16 hours
Experimental: FIG. 3 is a graph depicting the invasion migration of stable 4T1 clones using EV, R, and RL cells. Polycarbonate membranes of Transwells were coated with Matrigel® and cells were seeded. Sixteen hours later, cells were fixed, stained with Giemsa solution, and counted for each of the stable clones; EV, R, and RL.
Polycarbonate membranes (6.5 mm diameter, 8 μm pore size) of Transwells (Coster, N.Y.) were coated with Matrigel® (BD Biosciences, Franklin Lakes, N.J.) and cells were seeded (10^6 cells/100 μl) with DMEM including 0.1% serum. 16 hours later, cells were fixed, stained with Giemsa solution, and the upper surface of each membrane was scraped with a cotton swab. Cells that had reached the lower surface of the membrane (migrated cells) were counted in 20 random fields using a light microscope (×400).

[4] = system: E-cadherin mRNA; assay: E-cadherin mRNA by semi-quantitative RT-PCR; format: cell-based, mouse; details: EV, R and RL cells in vitro
Experimental: Total RNA was isolated from 4T1 cells in vitro using the SV Total RNA Isolation system (Promega, Madison, Wis.). Tissue RNA was collected with TRIzol® (GibcoBRL, Gaithersburg, Md.). RT-PCR was performed on the Perkin Elmer GeneAmp PCR system 2400 using Omniscript (Qiagen, Valencia, Calif.) for reverse transcription reaction, and Taq DNA polymerase (Qiagen) and primers for mouse E-cadherin (5′-[…]-3′ and 5′-[…]-3′, SEQ ID NO: 5), GAPDH (5′-ACAGTCTTCTGAGTGGCA-3′, SEQ ID NO: 6, and 5′-CCCATCACCATCTTCCAG-3′, SEQ ID NO: 7) and HA-tagged lipocalin 2 (5′-GGAGTACTTCAAGATCAC-3′, SEQ ID NO: 8 and 5′-[…]-3′, SEQ ID NO: 9) for DNA amplification. The PCR conditions were established for DNA amplification in the linear range. RT-PCR products were analyzed on 1% agarose gels.

[5] = system: colon cancer cells; details: ectopic expression of lipocalin 2; cited from earlier work
[6] = system: 4T1 primary tumor; assay: Western blot of total cell lysate from 4T1 primary tumors; format: in vivo, Balb/c mice
Excerpt: 4T1 clones (EV, R and RL) were suspended in PBS and injected subcutaneously in the backs of Balb/c mice. 3 weeks later, primary tumor tissue was dissected, homogenized and the supernatant fluid was collected as total cell lysate. Western blot of total cell lysate from each primary tumor for the antigen is shown. GAPDH serves as a loading control. The E-cadherin, vimentin and GAPDH data is from Hanai et al., J. Biol. Chem. 280:13641-13647 (2005).
(§2) Cells were stained as described previously (Mammoto et al., Cancer Lett. 184:165-170, 2002) and images acquired with a Delta Vision system (Applied Precision, Issaquah, Wash.) equipped with an Axiovert 100 microscope (Carl Zeiss MicroImaging Inc., Shelton, Conn.) and a Photometrics 300 series scientific-grade cooled CCD camera, reading 12-bit images, and using the 63/1.4 NA plan-Neofluar objective. For immunoprecipitation and immunoblotting, tissues were weighed, diced, soaked in ice cold RIPA buffer with 1 mM phenylmethylsulfonyl fluoride (PMSF), 1 μg/ml Aprotinin, 1 mM Na3VO4, 1 nM NaF, homogenized on ice, centrifuged at 10,000 g for 10 minutes at 4° C., and the supernatant fluid collected as total cell lysate. Cultured cells were washed, scraped, and solubilized in a lysis buffer containing 20 mM Tris-HCl pH 7.5, 150 mM NaCl, 0.5% Triton X-100, 1% aprotinin, and 1 mM PMSF. After 20 minutes on ice, the cells were pelleted by centrifugation and the supernatants were used as a cell lysate. Cell lysates or immunoprecipitated cell lysates were separated by PAGE (NuPAGE® gels; Invitrogen, Carlsbad, Calif.), followed by electroblotting onto a polyvinylidenedifluoride membrane (PVDF). Protein bands were detected using SuperSignal® West Pico Chemiluminescent Substrate (Pierce Chemical Co., Rockford, Ill.) (Hanai et al., J. Cell. Biol. 158:529-539, 2002).
To determine whether lipocalin 2 could affect expression of anti-angiogenic factors in vivo, we injected EV, R, or RL cells subcutaneously in the backs of Balb/c mice and dissected the primary tumors at 3 weeks post-inoculation. As shown above and in Hanai et al., supra, E-cadherin and vimentin protein expression varied reciprocally in the three tumor types. We assessed the expression of VEGF and thrombospondin-1 (TSP-1) by western blot in each tumor tissue.

[7] = system: colon cancer cells; details: ectopic expression of lipocalin 2; cited from earlier work; remark: listed apart in the source
[8] = system: E-cadherin; assay: E-cadherin phosphorylation (immunoprecipitation and western blot); format: cell-based, mouse; details: R cells vs RL cells or R cells with inhibitor
Excerpt: as §2

[9] = system: 4T1 cells injected subcutaneously; assay: In vivo assay for primary tumor growth and pulmonary metastases; design: species or system Balb/c mice
Experimental: FIG. 4A is a graph showing the effect of lipocalin 2 on 4T1 primary tumor growth. 4T1 clones (EV, R, and RL) were suspended in PBS and injected subcutaneously in the backs of Balb/c mice. Primary tumor size was calculated based upon measurements at 1, 2, and 3 weeks. […] FIGS. 4E-F show graphs depicting the lung weight (FIG. 4E) and the number of metastatic nodules on the lung surface (FIG. 4F).
10^7 4T1-(EV, R, and RL) cells were injected subcutaneously in Balb/c mice (Asai et al., Int. J. Cancer. 76:418-422, 1998). Though this model is not the standard orthotopic model used, we have used it extensively in our laboratory to study metastases in lung. Primary tumor volume (V)=a·b·b/2, where a represents the […] tumor diameter. After 3 weeks, lung weights and the number of metastatic nodules on the lung surface were evaluated.

B1: lipocalin 2: human lipocalin 2 cDNA (HA tagged) in pcDNA3.1, stably expressed in 4T1-ras cells (RL clone); iron-siderophore binding protein (protein, UniProt P80188 21-198, looked up)
Neutrophil …: QDSTSDLIPAPPLSKVPLQQNFQDNQFQGKWYVVGLAGNAILREDKDPQKMYATIYELKEDKSYNVTSVLFRKKKCDYWIRTFVPGCQPGEFTLGNIKSYPGLTSYLVRVVSTNYNQHAMVFFKKVSQNREYFKITLYGRTKELTSELKENFIRFSKSLGLPENHIVFPVPIDQCIDG
modifications: HA tag
In the case of B1, the “IGF-1-induced phosphorylation of AKT” value ([1]; EV or RL cells with or without IGF-1) is reported as “does not downregulate”, the “ras-induced phosphorylation of AKT” value ([1]; EV, R and RL clones) is reported as “downregulates” and the caveolin-1 expression [2] is reported as “rescued this loss of caveolin-1”. The “reversal of ras induced invasiveness in vitro” value [3] was “approximately 76%”, the “E-cadherin mRNA” value [4] was “remained unchanged” and the “invasiveness of colon cancer cells” value [5] was “suppressed the invasiveness of colon cancer cells”. The “E-cadherin in primary tumors” value ([6]; RL tumors vs R) was “more E-cadherin”, the “vimentin in primary tumors” value ([6]; RL tumors vs R) was “less vimentin” and the “TSP-1 protein in primary tumors” value ([6]; RL vs R and EV tumors, 3 weeks post-inoculation) was “returned in RL cells to the levels noted in EV cells”. For the same molecule, the “ras-induced increase of VEGF protein in primary tumors” value ([6]; RL vs R tumors, 3 weeks post-inoculation) was “completely abrogated”, the liver metastasis [7] was “inhibited liver metastasis” and the E-cadherin phosphorylation [8] was “markedly downregulated”. The primary tumor size ([9]; R vs RL tumors, 1, 2 and 3 weeks post-inoculation) was “Primary tumors of R cells were significantly larger than lipocalin 2 cells”, the “reduction of number of metastatic pulmonary nodules” value ([9]; RL cells compared to R cells, 3 weeks after s.c. injection) was 80% and the lung weight ([9]; RL compared to R cells, 3 weeks) was “lung weights were less”.
